Experimental data reported in the supplement of paper PMC9112550, “Optimization of the antimicrobial peptide Bac7 by deep mutational scanning” (BMC Biology, 2022).

test system: Escherichia coli TOP10; test: shrunken log2 fold change of peptide-encoding DNA abundance (4.5 h post-induction vs induction); higher = less antimicrobial activity (less host growth inhibition); details: time post-induction: 4.5 h; library: site-saturation at positions 5, 18, 19, 20
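Further: peptides expressed intracellularly from a pBAD plasmid library in pooled LB shake-flask culture, induced with 0.3% L-arabinose, DNA abundance read by NGS, three biological replicates, DESeq2 with apeglm shrinkage.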

Sequence | shrunken log2 fold change
RRIRTRPPRLPRPRPRPVPTPRP | 3.08
RRIRTRPPRLPRPRPRPVRVPRP | 0.229
RRIRTRPPRLPRPRPRPVSMPRP | -0.812
RRIRTRPPRLPRPRPRPVSTPRP | 0.137
RRIRTRPPRLPRPRPRPVTAPRP | -0.0612
RRIRTRPPRLPRPRPRPVYGPRP | -0.167
RRIRTRPPRLPRPRPRPWAHPRP | -0.0917
RRIRTRPPRLPRPRPRPWCVPRP | -0.212
RRIRTRPPRLPRPRPRPWDSPRP | -0.00804
RRIRTRPPRLPRPRPRPWFFPRP | -0.0908
RRIRTRPPRLPRPRPRPWGWPRP | -0.0131
RRIRTRPPRLPRPRPRPWHPPRP | -0.179
RRIRTRPPRLPRPRPRPWICPRP | 0.0207
RRIRTRPPRLPRPRPRPWKMPRP | -0.0793
RRIRTRPPRLPRPRPRPWLYPRP | -0.161
RRIRTRPPRLPRPRPRPWMTPRP | -0.0339
RRIRTRPPRLPRPRPRPWNHPRP | 0.0317
RRIRTRPPRLPRPRPRPWNKPRP | -0.594
RRIRTRPPRLPRPRPRPWRCPRP | -0.00386
RRIRTRPPRLPRPRPRPWRFPRP | -0.0156
RRIRTRPPRLPRPRPRPWRKPRP | -0.262
RRIRTRPPRLPRPRPRPWRVPRP | -0.00468
RRIRTRPPRLPRPRPRPWSRPRP | -0.0291
RRIRTRPPRLPRPRPRPWYDPRP | 0.0754
RRIRTRPPRLPRPRPRPWYIPRP | -0.146

Sequence | shrunken log2 fold change
RRIRTRPPRLPRPRPRPWYNPRP | -0.325
RRIRTRPPRLPRPRPRPYAHPRP | -0.239
RRIRTRPPRLPRPRPRPYCLPRP | -0.999
RRIRTRPPRLPRPRPRPYDLPRP | -0.14
RRIRTRPPRLPRPRPRPYESPRP | -0.00247
RRIRTRPPRLPRPRPRPYFYPRP | -0.842
RRIRTRPPRLPRPRPRPYGLPRP | 4.72
RRIRTRPPRLPRPRPRPYGVPRP | 0.0122
RRIRTRPPRLPRPRPRPYHKPRP | -0.426
RRIRTRPPRLPRPRPRPYINPRP | -0.879
RRIRTRPPRLPRPRPRPYKHPRP | -0.518
RRIRTRPPRLPRPRPRPYKMPRP | -0.0239
RRIRTRPPRLPRPRPRPYKRPRP | -0.29
RRIRTRPPRLPRPRPRPYLHPRP | -0.367
RRIRTRPPRLPRPRPRPYLNPRP | -0.484
RRIRTRPPRLPRPRPRPYMDPRP | -1.37
RRIRTRPPRLPRPRPRPYMEPRP | 2.39
RRIRTRPPRLPRPRPRPYMPPRP | -1.27
RRIRTRPPRLPRPRPRPYMVPRP | -1.93
RRIRTRPPRLPRPRPRPYPLPRP | 0.0692
RRIRTRPPRLPRPRPRPYQHPRP | -0.376
RRIRTRPPRLPRPRPRPYRCPRP | -0.123
RRIRTRPPRLPRPRPRPYRLPRP | -0.0268
RRIRTRPPRLPRPRPRPYRWPRP | -0.281
RRIRTRPPRLPRPRPRPYSAPRP | -0.206

Sequence | shrunken log2 fold change
RRIRTRPPRLPRPRPRPYSTPRP | -0.0702
RRIRTRPPRLPRPRPRPYVIPRP | -1.03
RRIRTRPPRLPRPRPRPYWSPRP | 0.00748
RRIRTRPPRLPRPRPRPYYFPRP | -0.783
RRIRTRPPRLPRPRPRPYYYPRP | -1.2
RRIRVRPPRLPRPRPRPAAPPRP | 0.452
RRIRVRPPRLPRPRPRPAAWPRP | 0.136
RRIRVRPPRLPRPRPRPACCPRP | 0.161
RRIRVRPPRLPRPRPRPACWPRP | 0.517
RRIRVRPPRLPRPRPRPADDPRP | 0.203
RRIRVRPPRLPRPRPRPADHPRP | 0.206
RRIRVRPPRLPRPRPRPADLPRP | 0.0387
RRIRVRPPRLPRPRPRPADRPRP | 0.194
RRIRVRPPRLPRPRPRPAEHPRP | -0.086
RRIRVRPPRLPRPRPRPAHAPRP | 0.068
RRIRVRPPRLPRPRPRPAHFPRP | 0.31
RRIRVRPPRLPRPRPRPAHGPRP | 0.0221
RRIRVRPPRLPRPRPRPAIIPRP | -0.425
RRIRVRPPRLPRPRPRPAILPRP | -0.204
RRIRVRPPRLPRPRPRPAKQPRP | -0.0993
RRIRVRPPRLPRPRPRPAKWPRP | 0.153
RRIRVRPPRLPRPRPRPALNPRP | -0.142
RRIRVRPPRLPRPRPRPAMHPRP | 0.0999
RRIRVRPPRLPRPRPRPAMLPRP | 0.0111
RRIRVRPPRLPRPRPRPAMPPRP | 0.0637
